The values that follow come from article PMC6017673, “Functional Characterization of the Saccharomyces cerevisiae Equilibrative Nucleoside Transporter 1 (ScENT1)” (Molecules : A Journal of Synthetic Chemistry and Natural …, 2018).

What all share (assay): purified protein
Substrate in data set [1]: Nc1ccn([C@@H]2O[C@H](CO)[C@@H](O)[C@H]2O)c(=O)n1
To be noted: labelled compound; purified transporter in proteoliposomes.

Substrate in data set [2]: O=c1ccn([C@@H]2O[C@H](CO)[C@@H](O)[C@H]2O)c(=O)[nH]1
Type of data set: biochemical, Saccharomyces cerevisiae. To be noted: labelled compound; purified transporter in proteoliposomes.

Substrate in data set [3]: O=c1ccn([C@@H]2O[C@H](COP(=O)(O)OP(=O)(O)OP(=O)(O)O)[C@@H](O)[C@H]2O)c(=O)[nH]1
Type of data set: biochemical, Saccharomyces cerevisiae. To be noted: labelled compound, purified transporter in proteoliposomes.

B1: ScENT1 (FUN26) (Saccharomyces cerevisiae S288C) (protein)
chain: MSTSADTDTIKKPILAVPEPALADTHSEEISRSGEEHESENNEHSDEEGDNYSEREQSVSTEPLDTLPLRKKLKNLSYITFFAIGIGLLWPWNCILSASQYFKHDIFKDTSIWAKIFTSSMMSFSTISSMLFNIYLAKRQYKYSRRVINGLVWEIIVFTVMCFFTILHFLLPKWFNFMFIMMLVVISSMGTAMTQNGIMAIANVFGSEYSQGVMVGQAVAGVLPSLVLFALAFIENSSVSTTGGILLYFFTTTLVVTICVVMFSVSKISRKVNENWNVEDGHITDVLLGSLRSNEEEIRIVGRIDQMEDEDHRRTNGTRDDNDEGEELQLKVPFEVLFAKLKYLVLSIFTTFVVTLVFPVFASATYVTGLPLSNAQYIPLIFTLWNLGDLYGRVIADWPMFRDQKFTPRKTFIYSLLRVAAIPLFLMFTAITSSSSGDEEHNGSVIVDLCYMLLQFLFGVTNGHVISMSFMKVPEQLDNDDEKEAAGGFTNIFVSTGLALGSIISYVFVFIIDFIIR
notes: full-length, poly-His tagged (TALON, SEC), overexpressed in S. cerevisiae W303-delta-pep4, DDM-solubilised, reconstituted in proteoliposomes
The term Km denotes the substrate concentration at which the rate is half of its maximum. For the protein B1, the values for the Km in the data set “purified protein [1]” and in “purified protein [2]” were 0.195 µM and 0.327 µM, respectively.

B2: ScENT1 (FUN26) (Saccharomyces cerevisiae S288C; L390A) (protein)
chain: MSTSADTDTIKKPILAVPEPALADTHSEEISRSGEEHESENNEHSDEEGDNYSEREQSVSTEPLDTLPLRKKLKNLSYITFFAIGIGLLWPWNCILSASQYFKHDIFKDTSIWAKIFTSSMMSFSTISSMLFNIYLAKRQYKYSRRVINGLVWEIIVFTVMCFFTILHFLLPKWFNFMFIMMLVVISSMGTAMTQNGIMAIANVFGSEYSQGVMVGQAVAGVLPSLVLFALAFIENSSVSTTGGILLYFFTTTLVVTICVVMFSVSKISRKVNENWNVEDGHITDVLLGSLRSNEEEIRIVGRIDQMEDEDHRRTNGTRDDNDEGEELQLKVPFEVLFAKLKYLVLSIFTTFVVTLVFPVFASATYVTGLPLSNAQYIPLIFTLWNLGDAYGRVIADWPMFRDQKFTPRKTFIYSLLRVAAIPLFLMFTAITSSSSGDEEHNGSVIVDLCYMLLQFLFGVTNGHVISMSFMKVPEQLDNDDEKEAAGGFTNIFVSTGLALGSIISYVFVFIIDFIIR
notes: as for B1
Consider B2, for which the Michaelis-Menten constant (Km) in the data set “purified protein [2]” is 0.215 µM; in “purified protein [3]” (extrapolated beyond tested concentrations, not saturated), 2.92 µM.

B3: ScENT1 (FUN26) (Saccharomyces cerevisiae S288C; F249I) (protein)
chain: MSTSADTDTIKKPILAVPEPALADTHSEEISRSGEEHESENNEHSDEEGDNYSEREQSVSTEPLDTLPLRKKLKNLSYITFFAIGIGLLWPWNCILSASQYFKHDIFKDTSIWAKIFTSSMMSFSTISSMLFNIYLAKRQYKYSRRVINGLVWEIIVFTVMCFFTILHFLLPKWFNFMFIMMLVVISSMGTAMTQNGIMAIANVFGSEYSQGVMVGQAVAGVLPSLVLFALAFIENSSVSTTGGILLYIFTTTLVVTICVVMFSVSKISRKVNENWNVEDGHITDVLLGSLRSNEEEIRIVGRIDQMEDEDHRRTNGTRDDNDEGEELQLKVPFEVLFAKLKYLVLSIFTTFVVTLVFPVFASATYVTGLPLSNAQYIPLIFTLWNLGDLYGRVIADWPMFRDQKFTPRKTFIYSLLRVAAIPLFLMFTAITSSSSGDEEHNGSVIVDLCYMLLQFLFGVTNGHVISMSFMKVPEQLDNDDEKEAAGGFTNIFVSTGLALGSIISYVFVFIIDFIIR
notes: as for B1
For the protein B3, the Michaelis-Menten constant (Km) in the data set “purified protein [1]” was 0.452 µM; in the data set “purified protein [3]”, 0.13 µM.
